Holding throughout (assay): EMSA; EMSA: 10 mM HEPES, 150 mM NaCl, 0.01% Tween-20, 0.1 mg/ml BSA, 1 mM TCEP, 4 °C, 40 min; RNA <50 pM
For data set [1], the target named is T1, Nop9 (46-645) (Saccharomyces cerevisiae, UniProt P47077 46-645).
T1 sequence: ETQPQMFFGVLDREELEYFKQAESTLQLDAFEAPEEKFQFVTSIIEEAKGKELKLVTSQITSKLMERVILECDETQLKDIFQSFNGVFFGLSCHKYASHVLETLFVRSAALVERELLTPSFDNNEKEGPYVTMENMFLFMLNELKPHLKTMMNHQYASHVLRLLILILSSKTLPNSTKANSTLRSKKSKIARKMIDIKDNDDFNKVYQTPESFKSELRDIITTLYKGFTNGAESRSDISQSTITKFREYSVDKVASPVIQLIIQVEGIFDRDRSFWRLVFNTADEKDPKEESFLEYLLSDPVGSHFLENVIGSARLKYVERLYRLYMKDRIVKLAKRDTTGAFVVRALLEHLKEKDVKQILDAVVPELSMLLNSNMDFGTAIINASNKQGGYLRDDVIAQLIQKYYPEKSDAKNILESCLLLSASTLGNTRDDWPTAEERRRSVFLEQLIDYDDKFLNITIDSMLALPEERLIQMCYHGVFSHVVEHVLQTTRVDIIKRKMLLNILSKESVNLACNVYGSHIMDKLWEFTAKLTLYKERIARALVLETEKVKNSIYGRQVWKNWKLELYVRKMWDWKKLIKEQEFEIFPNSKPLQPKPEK
To be noted: protein: recombinant, tags: none (SUMO cleaved), hairpin.

Data set [2] concerns the target T2, Nop9 full-length (Saccharomyces cerevisiae, UniProt P47077 1-666).
T2 sequence: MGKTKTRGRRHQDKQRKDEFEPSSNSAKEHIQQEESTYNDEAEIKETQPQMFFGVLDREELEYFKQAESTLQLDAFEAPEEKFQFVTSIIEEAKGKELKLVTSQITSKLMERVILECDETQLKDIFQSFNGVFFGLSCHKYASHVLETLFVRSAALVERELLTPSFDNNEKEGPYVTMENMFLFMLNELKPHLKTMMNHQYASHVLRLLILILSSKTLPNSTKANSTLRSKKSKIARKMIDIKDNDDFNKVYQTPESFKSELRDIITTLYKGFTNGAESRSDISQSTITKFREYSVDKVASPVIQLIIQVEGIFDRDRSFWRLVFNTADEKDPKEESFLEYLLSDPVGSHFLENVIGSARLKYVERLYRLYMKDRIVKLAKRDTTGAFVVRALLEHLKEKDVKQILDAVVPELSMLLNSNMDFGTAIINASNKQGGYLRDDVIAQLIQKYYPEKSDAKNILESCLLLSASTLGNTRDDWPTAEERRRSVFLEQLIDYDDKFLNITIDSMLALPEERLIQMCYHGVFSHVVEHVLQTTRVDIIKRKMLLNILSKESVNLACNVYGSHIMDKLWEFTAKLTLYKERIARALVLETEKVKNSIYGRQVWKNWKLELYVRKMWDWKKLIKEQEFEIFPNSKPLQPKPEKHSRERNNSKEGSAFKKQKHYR
The settings on record: protein: recombinant; tags: none (SUMO cleaved); label: 5' 32P; hairpin, 5' flank.

Data set [3] deals with T1, Nop9 (46-645). The settings on record: protein: recombinant; tags: none (SUMO cleaved); label: 5' 32P; hairpin, 5' flank.
Data set [4] has as its target T1, Nop9 (46-645). The settings on record: protein: recombinant; tags: none (SUMO cleaved); label: 5' 32P; hairpin, 5' flank. This is another data set of the same source.

Positions count from the first letter of the chain named. Numbers in names are those of the source.

B1: Subdomain A Δ5'1-15, Δ3' (structured_RNA)
RNA: GGUUUGAAAAUGGAUUUUUUUGUUUUAUAGGACAAUUAAAACCGUUUCAA
For B1, the Kd in data set [1] (label: 5' 32P) is 346 ± 40 nM.

B2: Subdomain A Δ5'1-12, Δ3' (structured_RNA)
RNA: GGAAUUUUGAAAAUGGAUUUUUUUGUUUUAUAGGACAAUUAAAACCGUUUCAA
In the case of B2, in data set [1] (label: 5' 32P, 5' flank), the Kd worked out at 18.2 ± 1.9 nM.

B3: ITS1 Subdomain A (1-38_184-212) (structured_RNA)
RNA: GGAAGAAAUUUAAUAAUUUUGAAAAUGGAUUUUUUUGUUUUAUAGGACAAUUAAAACCGUUUCAAUACAAC
Take B3: in data set [1] (label: 5' 32P (EMSA), 5' and 3' single-stranded flanks), the Kd is 2.4 ± 0.3 nM.

B4: nt 27-30 mutant, pairing kept (structured_RNA)
RNA: GGUUUAAUAAUUUUGAAAAUGGGCGCUUUUGUUUUAUAGGACAAUUGCGCCCGUUUCAA
With B4, the binding result in data set [1] (label: 5' 32P, 5' flank) is “binds”.

B5: ITS1 Subdomain C (77-140) (structured_RNA)
RNA: GGAGAGAUGGAGAGUCCAGCCGGGCCUGCGCUUAAGUGCGCGGUCUUGCUAGGCUUGUAAGUUUCU
As for B5, in data set [1] (label: 5' 32P), the Kd was 74.4 ± 4.1 nM.

B6: Subdomain A Δ5'1-6, Δ3' (structured_RNA)
RNA: GGUUUAAUAAUUUUGAAAAUGGAUUUUUUUGUUUUAUAGGACAAUUAAAACCGUUUCAA
For B6, the equilibrium dissociation constant (Kd) in data set [1] (label: 5' 32P, 5' flank) turned out to be 11.8 ± 0.4 nM; in data set [2], 10.1 ± 1 nM.

B7: U16A (structured_RNA)
RNA: B6 RNA with U12A
As to B7, the Kd in data set [1] (label: 5' 32P, 5' flank) is 62.3 ± 4.9 nM.

B8: III: UU(17-18)GC, AA(205-206)GC (structured_RNA)
RNA: B6 RNA with U13G, U14C, A58G, A59C
With B8, the binding signal in data set [3] was ~4 fold Kd vs A Δ5'1-6,Δ3'.

B9: AAU(13-15)CCC, A Δ5'1-6, Δ3' (structured_RNA)
RNA: B6 RNA with A9C, A10C, U11C
With B9, the Kd in data set [1] (label: 5' 32P, 5' flank) was 27.6 ± 3.7 nM.

B10: II: U16G (structured_RNA)
RNA: B6 RNA with U12G
Take B10: the Kd in data set [1] (label: 5' 32P, 5' flank) was 47.7 ± 1.8 nM.

B11: IV: stem base strands reversed (UUG17-19AAC, CAA204-206GUU) (structured_RNA)
RNA: B6 RNA with U13A, U14A, G15C, C57G, A58U, A59U
On to B11, for which, in data set [1] (label: 5' 32P, 5' flank), the binding result is recorded as “binds”.

B12: nt 20-22 mutant, pairing kept (structured_RNA)
RNA: B6 RNA with A16C, A17C, A18C, U54G, U55G, U56G
Consider B12, for which the binding result in data set [1] (label: 5' 32P, 5' flank) is listed as “binds”.

B13: AAU(10-12)CCC, A Δ5'1-6, Δ3' (structured_RNA)
RNA: B6 RNA with A6C, A7C, U8C
For B13, the Kd in data set [1] (label: 5' 32P, 5' flank) was found to be 8.5 ± 0.6 nM.

B14: UUU(7-9)GGG, A Δ5'1-6, Δ3' (structured_RNA)
RNA: B6 RNA with U3G, U4G, U5G
As for B14, the Kd in data set [1] (label: 5' 32P, 5' flank) is 6.6 ± 0.3 nM.

B15: I: UUU(16-18)GGC, AA(205-206)GC (structured_RNA)
RNA: B6 RNA with U12G, U13G, U14C, A58G, A59C
For the molecule B15, the Kd in data set [1] (label: 5' 32P, 5' flank) was 103 ± 12 nM.

B16: ITS1 Subdomain B (39-77_140-183) (structured_RNA)
RNA: GGUGGCAAGAGCAUGAGAGCUUUUACUGGGCAAGAAGACAAUUUCUUGCUAUUCCAAACGGUGAGAGAUUUCUGUGCUUUUGUUA
On to B16, for which, in data set [1] (label: 5' 32P), the Kd stood at 105 ± 2.9 nM.

B17: Subdomain A Δ3' (structured_RNA)
RNA: GGAAGAAAUUUAAUAAUUUUGAAAAUGGAUUUUUUUGUUUUAUAGGACAAUUAAAACCGUUUCAA
As to B17, the Kd in data set [1] (label: 5' 32P, 5' flank) stood at 15.7 ± 2.6 nM.

B18: V: U-G pairs at stem base (structured_RNA)
RNA: UUUAAUAAUUUUGAAAAUGGAUUUUUUUGUUUUAUAGGACAAUUAAAACCGUUUCGG
As for B18, the binding signal in data set [4] was ~3 fold Kd vs A Δ5'1-6,Δ3'.

The values above are taken from publication PMC5062617, “Nop9 is a PUF-like protein that prevents premature cleavage to correctly process pre-18S rRNA”.
